Test results as given in patent US20190144558A1.

Molecular target: purified human CD117 ectodomain (R&D Systems #332-SR) (human) (UniProt P10721)
Test: BLI (Octet Red96), IgG on anti-human Fc sensors, human CD117 ectodomain at 33.3 and 11 nM, 1:1 fit

Kd: 24.9 nM
koff: 0.00533 s⁻¹
kon: 214000 M⁻¹ s⁻¹
B1: Antibody 61 (antibody, human IgG1, kappa, V domains shown)
VH: EVQLLESGGGLVQPGGSLRLSCAASGFTFSSYVMIWVRQAPGKGLEWVSSISGDSVTTYYADSVKGRFTISRDNSKNTLYLQMNSLRAEDTAVYYCAKGPPTYHTNYYYMDVWGKGTTVTVSS
VL: DIQMTQSPSSVSASVGDRVTITCRASQGISSWLAWYQQKPGKAPKLLIYAASSLQSGVPSRFSGSGSGTDFTLTISSLQPEDFATYYCQQTNSFPYTFGGGTKVEIKR
